Measurements as given in publication PMC2193914.

Molecular target: rat KLRE1-HA (short splice variant), in transiently transfected 293T cells (rat) (UniProt Q80ZC8)
Experiment: SDS-PAGE under nonreducing and reducing conditions with Western blot

stoichiometry N: 2
Substance: rat KLRE1-HA (short splice variant), in transiently transfected 293T cells (from UniProt Q80ZC8 1-226) (receptor)
